Measured values from publication PMC8882189, “Identification of Nanog as a novel inhibitor of Rad51” (Cell Death & Disease, 2022).

Target: T1, His-tagged Rad51 (mouse, UniProt Q08297 1-339)
T1 construct: Rad51, mouse; The bacterial expression construct is not described; source: bacterially expressed, purified (Ni superflow beads)
T1 sequence (looked up): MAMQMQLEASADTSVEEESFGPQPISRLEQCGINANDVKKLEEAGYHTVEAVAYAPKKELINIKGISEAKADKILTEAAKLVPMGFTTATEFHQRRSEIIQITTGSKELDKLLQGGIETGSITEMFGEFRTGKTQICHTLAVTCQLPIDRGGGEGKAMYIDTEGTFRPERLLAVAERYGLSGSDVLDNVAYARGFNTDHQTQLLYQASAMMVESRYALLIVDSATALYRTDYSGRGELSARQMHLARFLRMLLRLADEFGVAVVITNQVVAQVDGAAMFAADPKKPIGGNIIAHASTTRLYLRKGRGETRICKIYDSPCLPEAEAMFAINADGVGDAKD
Experiment: pull-down; purified GST-tagged Nanog or fragments on glutathione-sepharose beads, incubated with purified His-tagged Rad51 at 4 °C overnight; washed 4 times with lysis buffer; western blot with anti-Rad51
Settings: both partners purified

B1: GST-tagged Nanog (natural protein, mouse, UniProt Q80Z64 1-305, looked up)
chain: MSVGLPGPHSLPSSEEASNSGNASSMPAVFHPENYSCLQGSATEMLCTEAASPRPSSEDLPLQGSPDSSTSPKQKLSSPEADKGPEEEENKVLARKQKMRTVFSQAQLCALKDRFQKQKYLSLQQMQELSSILNLSYKQVKTWFQNQRMKCKRWQKNQWLKTSNGLIQKGSAPVEYPSIHCSYPQGYLVNASGSLSMWGSQTWTNPTWSSQTWTNPTWNNQTWTNPTWSSQAWTAQSWNGQPWNAAPLHNFGEDFLQPYVQLQQNFSASDLEVNLEATRESHAHFSTPQALELFLNYSVTPPGEI
notes: Nanog, mouse; The bacterial expression construct is not described; also called full-length Nanog; FL; source: E. coli BL21, purified (Glutathione-Sepharose)
B1: binds.
